Source: paper doi:10.1101/758409

What was measured:
[1] = target: DDA1-DDB1ΔB-DCAF15Δpro triplex (human) (UniProt Q66K64); test: BLI
[2] = target: DDA1-DDB1ΔB-DCAF15Δpro triplex (human) (UniProt Q66K64); test: ITC

Chain of RRM1-RRM2 domain of RBM39 (R1R2) (Q14498 150-331): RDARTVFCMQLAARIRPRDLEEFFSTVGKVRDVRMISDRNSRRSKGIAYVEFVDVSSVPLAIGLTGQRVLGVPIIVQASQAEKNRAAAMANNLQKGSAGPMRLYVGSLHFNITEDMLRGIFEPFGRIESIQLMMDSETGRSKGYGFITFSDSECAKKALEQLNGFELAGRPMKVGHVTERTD

| Substance | Kd [1] [µM] | Kd [2] [µM] |
| --- | --- | --- |
| R1R2(M265L) (from UniProt Q14498 150-331) (domain or fragment) | 1.2 |  |
| RRM1-RRM2 domain of RBM39 (R1R2) (from UniProt Q14498 150-331) (domain or fragment) | 4.6 | 6.4 |
